Key:
Assay in all cases: IEDB peptide-MHC binding, purified MHC/competitive/radioactivity; filed as Kd, often an IC50 or EC50 that approximates it; ≥ and ≤ were set here for values at or beyond the usual limits of such assays
HLA-A*33:01 = target: HLA-A*33:01
HLA-A*03:01 = target: HLA-A*03:01
HLA-A*11:01 = target: HLA-A*11:01
HLA-A*31:01 = target: HLA-A*31:01
HLA-A*68:01 = target: HLA-A*68:01
[1] = source organism: SARS coronavirus Tor2
[2] = source organism: Vaccinia virus WR
[3] = source organism: Dengue virus 2 Jamaica/1409/1983
[4] = source organism: Vaccinia virus Copenhagen
[5] = source organism: Mammarenavirus lassaense
[6] = source organism: Dengue virus 3 Martinique/1243/1999
[7] = source organism: Dengue virus 1 Brazil/97-11/1997
[8] = source organism: Lassa virus Josiah

ACQEAVKLK gave a Kd (HLA-A*33:01; source organism: Mammarenavirus juninense) of at least 77700 nM.

AFSLDVSEK showed a Kd (HLA-A*03:01; [1]) of 12100 nM, a Kd (HLA-A*11:01; [1]) of 3550 nM and a Kd (HLA-A*31:01; [1]) of 12300 nM. It also gave a Kd (HLA-A*33:01; [1]) of at least 77700 nM and a Kd (HLA-A*68:01; [1]) of 6740 nM.

AIEKDRLDK showed a Kd (HLA-A*03:01; [2]) of at least 78000 nM, a Kd (HLA-A*11:01; [2]) of 1120 nM and a Kd (HLA-A*31:01; [2]) of at least 77900 nM. For the same sequence, the Kd (HLA-A*33:01; [2]) was at least 77700 nM and the Kd (HLA-A*68:01; [2]) was at least 77700 nM.

ALALGMMVLK gave a Kd (HLA-A*03:01; [3]) of 24 nM and a Kd (HLA-A*11:01; [3]) of 13.7 nM.

In the case of AVEDEEFWK, the Kd (HLA-A*11:01; source organism: Dengue virus 3 Sri Lanka/1266/2000) is reported as 939 nM.

For AVVCYNSNY, the Kd (HLA-A*03:01; [1]) was 5400 nM, the Kd (HLA-A*11:01; [1]) was 698 nM and the Kd (HLA-A*31:01; [1]) was 14200 nM. For the same sequence, the Kd (HLA-A*33:01; [1]) was at least 77700 nM and the Kd (HLA-A*68:01; [1]) was 10100 nM.

With CLAVHECFVK the Kd (HLA-A*03:01; [1]) was 3050 nM, the Kd (HLA-A*11:01; [1]) was 3460 nM and the Kd (HLA-A*31:01; [1]) was 7510 nM. The Kd (HLA-A*33:01; [1]) was at least 61400 nM and the Kd (HLA-A*68:01; [1]) was 2270 nM.

With CLEWLRAKR the Kd (HLA-A*03:01; [2]) was 13100 nM, the Kd (HLA-A*11:01; [2]) was at least 49200 nM and the Kd (HLA-A*31:01; [2]) was 76.2 nM. The Kd (HLA-A*33:01; [2]) was 438 nM and the Kd (HLA-A*68:01; [2]) was 294 nM.

For CLLAISAVY, the Kd (HLA-A*03:01; [2]) was 987 nM, the Kd (HLA-A*11:01; [2]) was 5040 nM and the Kd (HLA-A*31:01; [2]) was 368 nM. It also gave a Kd (HLA-A*33:01; [2]) of 8530 nM and a Kd (HLA-A*68:01; [2]) of 160 nM.

Sequence CQLMYALEPR has a Kd (HLA-A*03:01; [4]) of 58 nM, a Kd (HLA-A*11:01; [4]) of 39.2 nM and a Kd (HLA-A*31:01; [4]) of 1050 nM. It also gave a Kd (HLA-A*33:01; [4]) of 14.4 nM and a Kd (HLA-A*68:01; [4]) of 7.65 nM.

In the case of CYLDTNIKM, the Kd (HLA-A*03:01; [2]) is reported as at least 38600 nM, the Kd (HLA-A*11:01; [2]) is reported as at least 77900 nM and the Kd (HLA-A*31:01; [2]) is reported as 285 nM. For the same sequence, the Kd (HLA-A*33:01; [2]) was 10900 nM and the Kd (HLA-A*68:01; [2]) was at least 25800 nM.

DENKWKSAR was tested, and the Kd (HLA-A*33:01; [3]) was 306 nM.

For DIETAIRAGY, the Kd (HLA-A*03:01; [2]) was 2480 nM, the Kd (HLA-A*11:01; [2]) was 5720 nM and the Kd (HLA-A*31:01; [2]) was 19400 nM. It also gave a Kd (HLA-A*33:01; [2]) of 6790 nM and a Kd (HLA-A*68:01; [2]) of 1240 nM.

With DIFVSLVKK the Kd (HLA-A*03:01; [2]) was 9920 nM, the Kd (HLA-A*11:01; [2]) was 27.8 nM and the Kd (HLA-A*31:01; [2]) was at least 77900 nM. For the same sequence, the Kd (HLA-A*33:01; [2]) was 54 nM and the Kd (HLA-A*68:01; [2]) was 0.538 nM.

With DIVNGKECCY the Kd (HLA-A*03:01; [2]) was at least 70100 nM, the Kd (HLA-A*11:01; [2]) was at least 69800 nM and the Kd (HLA-A*31:01; [2]) was at least 70000 nM. It also gave a Kd (HLA-A*33:01; [2]) of at least 70000 nM and a Kd (HLA-A*68:01; [2]) of at least 70200 nM.

DIVNNFITK gave a Kd (HLA-A*03:01; [2]) of at least 40800 nM, a Kd (HLA-A*11:01; [2]) of 1010 nM and a Kd (HLA-A*31:01; [2]) of at least 29200 nM. It also gave a Kd (HLA-A*33:01; [2]) of at least 26800 nM and a Kd (HLA-A*68:01; [2]) of 86.4 nM.

In the case of DLIKKSDAK, the Kd (HLA-A*03:01; [2]) is reported as at least 38000 nM, the Kd (HLA-A*11:01; [2]) is reported as at least 31300 nM and the Kd (HLA-A*31:01; [2]) is reported as at least 77900 nM. For the same sequence, the Kd (HLA-A*33:01; [2]) was 6630 nM and the Kd (HLA-A*68:01; [2]) was 2160 nM.

Work on DLVKSSFVKK yielded a Kd (HLA-A*03:01; [2]) of 156 nM, a Kd (HLA-A*11:01; [2]) of 177 nM and a Kd (HLA-A*31:01; [2]) of 169 nM. The Kd (HLA-A*33:01; [2]) was 281 nM and the Kd (HLA-A*68:01; [2]) was 1130 nM.

Sequence DMMFINSTCY has a Kd (HLA-A*03:01; [2]) of 821 nM, a Kd (HLA-A*11:01; [2]) of 10800 nM and a Kd (HLA-A*31:01; [2]) of 974 nM. For the same sequence, the Kd (HLA-A*33:01; [2]) was 883 nM and the Kd (HLA-A*68:01; [2]) was 1910 nM.

Work on DSCNANGCEH yielded a Kd (HLA-A*03:01; [5]) of at least 70000 nM, a Kd (HLA-A*11:01; [5]) of at least 69700 nM and a Kd (HLA-A*31:01; [5]) of at least 70000 nM. The Kd (HLA-A*33:01; [5]) was at least 70000 nM and the Kd (HLA-A*68:01; [5]) was at least 70100 nM.

In the case of DVIGERIKR, the Kd (HLA-A*33:01; [6]) is reported as 38.7 nM and the Kd (HLA-A*68:01; [6]) is reported as 24.7 nM.

DWLEKHGAER was tested, and the Kd (HLA-A*33:01; [7]) was 127 nM.

For EACYIYKSGK, the Kd (HLA-A*03:01; [2]) was 1080 nM, the Kd (HLA-A*11:01; [2]) was 1010 nM and the Kd (HLA-A*31:01; [2]) was 6450 nM. It also gave a Kd (HLA-A*33:01; [2]) of 11100 nM and a Kd (HLA-A*68:01; [2]) of 31.8 nM.

EARIVDKFGK was tested, and the Kd (HLA-A*03:01; [2]) was 7730 nM, the Kd (HLA-A*11:01; [2]) was 2570 nM and the Kd (HLA-A*31:01; [2]) was 633 nM. It also gave a Kd (HLA-A*33:01; [2]) of at least 20500 nM and a Kd (HLA-A*68:01; [2]) of 101 nM.

ETKGVERLK was tested, and the Kd (HLA-A*68:01; [6]) was 33.3 nM.

ETLNEYKQLY was tested, and the Kd (HLA-A*03:01; [2]) was 15100 nM, the Kd (HLA-A*11:01; [2]) was 12400 nM and the Kd (HLA-A*31:01; [2]) was at least 41300 nM. For the same sequence, the Kd (HLA-A*33:01; [2]) was 541 nM and the Kd (HLA-A*68:01; [2]) was 331 nM.

Sequence EVHTWTEQYK has a Kd (HLA-A*68:01; [7]) of 15.2 nM.

In the case of FIKYVNGWVK, the Kd (HLA-A*03:01; [2]) is reported as 1.76 nM, the Kd (HLA-A*11:01; [2]) is reported as 1.56 nM and the Kd (HLA-A*31:01; [2]) is reported as 115 nM. The Kd (HLA-A*33:01; [2]) was 111 nM and the Kd (HLA-A*68:01; [2]) was 1.13 nM.

In the case of FISDNKKEY, the Kd (HLA-A*03:01; [2]) is reported as at least 78000 nM, the Kd (HLA-A*11:01; [2]) is reported as at least 77900 nM and the Kd (HLA-A*31:01; [2]) is reported as at least 77900 nM. For the same sequence, the Kd (HLA-A*33:01; [2]) was at least 77700 nM and the Kd (HLA-A*68:01; [2]) was 7070 nM.

Work on FLELKRGIY yielded a Kd (HLA-A*03:01; [2]) of at least 78000 nM, a Kd (HLA-A*11:01; [2]) of 10700 nM and a Kd (HLA-A*31:01; [2]) of 2200 nM. For the same sequence, the Kd (HLA-A*33:01; [2]) was 4540 nM and the Kd (HLA-A*68:01; [2]) was 1880 nM.

Sequence FTSTNDKIK has a Kd (HLA-A*03:01; [2]) of 1190 nM, a Kd (HLA-A*11:01; [2]) of 58.8 nM and a Kd (HLA-A*31:01; [2]) of 15200 nM. The Kd (HLA-A*33:01; [2]) was at least 77700 nM and the Kd (HLA-A*68:01; [2]) was 113 nM.

GALDTTSYR gave a Kd (HLA-A*03:01; [1]) of 6600 nM, a Kd (HLA-A*11:01; [1]) of 26.3 nM and a Kd (HLA-A*31:01; [1]) of 86.5 nM. The Kd (HLA-A*33:01; [1]) was 1400 nM and the Kd (HLA-A*68:01; [1]) was 68.4 nM.

GFAAYNRYR gave a Kd (HLA-A*03:01; [1]) of 5710 nM, a Kd (HLA-A*11:01; [1]) of 6570 nM and a Kd (HLA-A*31:01; [1]) of 821 nM. For the same sequence, the Kd (HLA-A*33:01; [1]) was 9670 nM and the Kd (HLA-A*68:01; [1]) was at least 27000 nM.

For GFEARIVDK, the Kd (HLA-A*03:01; [2]) was at least 41000 nM, the Kd (HLA-A*11:01; [2]) was 9030 nM and the Kd (HLA-A*31:01; [2]) was 1600 nM. It also gave a Kd (HLA-A*33:01; [2]) of 10300 nM and a Kd (HLA-A*68:01; [2]) of 16300 nM.

GIPYCNYSK showed a Kd (HLA-A*03:01; [8]) of 3330 nM, a Kd (HLA-A*11:01; [8]) of 118 nM and a Kd (HLA-A*31:01; [8]) of at least 45000 nM. It also gave a Kd (HLA-A*33:01; [8]) of at least 24200 nM and a Kd (HLA-A*68:01; [8]) of 444 nM.

In the case of GLLLRKLTSK, the Kd (HLA-A*03:01; [3]) is reported as 39.6 nM.

For GVAPGTAVLR, the Kd (HLA-A*03:01; [1]) was 1320 nM, the Kd (HLA-A*11:01; [1]) was 165 nM and the Kd (HLA-A*31:01; [1]) was 2850 nM. The Kd (HLA-A*33:01; [1]) was at least 41900 nM and the Kd (HLA-A*68:01; [1]) was 43.2 nM.

Work on IISDMYDPR yielded a Kd (HLA-A*03:01; [1]) of 12800 nM, a Kd (HLA-A*11:01; [1]) of 122 nM and a Kd (HLA-A*31:01; [1]) of 325 nM. It also gave a Kd (HLA-A*33:01; [1]) of 1340 nM and a Kd (HLA-A*68:01; [1]) of 5.41 nM.

IIVLFQRFLR was tested, and the Kd (HLA-A*03:01; [2]) was 941 nM, the Kd (HLA-A*11:01; [2]) was 44.3 nM and the Kd (HLA-A*31:01; [2]) was 1.33 nM. It also gave a Kd (HLA-A*33:01; [2]) of 13.1 nM and a Kd (HLA-A*68:01; [2]) of 3.05 nM.

Sequence ILAEYIRHR has a Kd (HLA-A*03:01; [2]) of 77.5 nM, a Kd (HLA-A*11:01; [2]) of 1450 nM and a Kd (HLA-A*31:01; [2]) of 13.6 nM. It also gave a Kd (HLA-A*33:01; [2]) of 48.4 nM and a Kd (HLA-A*68:01; [2]) of 15 nM.

Reference: the Immune Epitope Database (IEDB)
